Literature values as cited in US10500169B2, “Supression of IgE production by compounds derived from traditional chinese medicine” (Sean N. Parker Foundation, priority 2014, dated 2019).

Tested on: peanut allergic patients

B1: TNX-901: anti-IgE antibody (antibody, chains of the INN, looked up, V domains shown)
VH: QVQLVQSGAEVKKPGASVKVSCKASGYTFSMYWLEWVRQAPGHGLEWVGEISPGTFTTNYNEKFKARATFTADTSTNTAYMELSSLRSEDTAVYYCARFSHFSGSNYDYFDYWGQGTLVTVSS
VL: DILLTQSPGTLSLSPGERATLSCRASQSIGTNIHWYQQKPGQAPRLLIKYASESISGIPSRFSGSGSGTDFTLTISRLEPEDFAMYYCQQSDSWPTTFGQGTKVEIK
- median threshold of sensitivity to peanut after treatment (increased from 178 mg peanut protein): 2.8 grams
- symptoms following peanut challenge (vs placebo group): significant decrease in symptoms
